# Measured values from the supplement of paper PMC11865577.
# System: TO-3-N3 (biotin conjugate)
# Assay: pull-down binding Z-score (relative to library population); higher = stronger binding
# Conditions: RNA library: Library-2
# Summary of the method: (§1)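 Streptavidin beads bearing 100 pmol of a biotin-conjugated small molecule were incubated for 60 min at 25 °C with 1 μg of heat-folded, Cy5- or Cy3-end-labelled RNA library in phosphate/NaCl/KCl buffer. Hot SDS eluted the RNA that stayed bound after three washes, and this RNA was hybridised for 20 h at 55.5 °C to a DNA barcode microarray. Binding was expressed as a Z-score against the library mean and standard deviation, after subtraction of a beads-only signal and trimmed averaging of barcoded replicate probes.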
row,Sequence,pull-down binding Z-score
1,GGGACACAUUUGAGCCAAAUGUCCC [hsa-mir-610],-0.35
2,GGGACAUUGCGGAGAGGGUCUCACAUUGUCCC [hsa-mir-4646],0.894
3,GGGACGUGUGAUGCUGUGCUUCCU [hsa-mir-3689f],-0.469
4,GGGAGAGGGGCCCAGCUGACCCUCCUGUC [hsa-mir-6879],0.755
5,GGGAGCAUGAACAAUGUUUCUCACUCCC [hsa-mir-3162],0.186
6,GGGAGCGGCCCUCACAUUGAUGGCUCCU [hsa-mir-6727],0.264
7,GGGAGGUAAGAAGUCUCUGACUCCU [hsa-mir-5193],-0.307
8,GGGAGGUAUGAUAUCGUGGUUCCU [hsa-mir-3689e],0.555
9,GGGAGUGGUUCCAUCACGCCUCCUCAC [hsa-mir-483],-0.089
10,GGGAUAUUUGCAUUAUACUUAUCC [hsa-mir-5009],0.0656
11,GGGAUGAGCCCUGGCUCUGUUUCCUAG [hsa-mir-378h],0.0333
12,GGGCAGAAAUAGAUGGCCU [hsa-mir-4270],1
13,GGGCAGGGAGGGCAGGGCAGGCUCUGGGGUGGGGGGUCUGUGAGUCAGCCACGGCUC [hsa-mir-4516],6.78
14,GGGCAGGGAGUCAGAGGGGACCGCCC [hsa-mir-4740],2.19
15,GGGCAUUCCGGAUAGGCCGAGAAAGUGUUG [hsa-mir-6723],1.45
16,GGGCCAGUCUGACCGUUUCUAGGCG [hsa-mir-551a],0.541
17,GGGCCAUGUCUGUGAGGGCCCA [hsa-mir-4294],-0.261
18,GGGCCCCAAGACUCGGGGUUU [hsa-mir-4651],0.633
19,GGGCCGUGCACCCGUGGGCCCC [hsa-mir-1915],-0.204
20,GGGCCUGGGUUUCUGAACAC [hsa-mir-196a-1],0.328
21,GGGCGCCGGCGGCCGGGAGAUCCGCGCUUCCUGAAUCCCGGCCGGCCCGCCCGGCGCCC [hsa-mir-4497],0.25
22,GGGCGGAACACCCAGCCCC [hsa-mir-4417],-0.4
23,GGGCGUGGUGGACAGCGAUGCAUCCC [hsa-mir-6803],0.532
24,GGGCUCGUGAUGGCUGGUGGGCCC [hsa-mir-345],-0.497
25,GGGCUGCCCGGGCCGGUCGACCAGCGCGCCGUAGCUCC [hsa-mir-6724-2_6724-3_6724-1_6724-4],0.0652
26,GGGCUUUCUGGUUUUAUUUUAAGCCC [hsa-mir-186],0.594
27,GGGGAGAGGGACACGCCCUGGGCUCUGCCCAGGGUGCAGCCGGACUGACUGAG [hsa-mir-1225],1.55
28,GGGGAUGGACUGGAAGUGGGCAGCAUGGAGCUGACCUUCAUCAUGGCUUGGCCAACAUAAUGCCUC [hsa-mir-1236],1.72

# System: TO-N3 (biotin conjugate)
# Assay: as above
# Conditions: RNA library: Library-2
# Summary of the method: as §1
row,Sequence,pull-down binding Z-score
1,GGCCGUUUGAGAUGUCC [hsa-mir-3674],-0.259
2,GGCCUGGGAUUCCUGCCUUCUAGGUC [hsa-mir-8078],0.707
3,GGCGACUGGUGUCUAAUUUGUUUGUC [hsa-mir-4429],-0.37
4,GGCGCACAGCAGACCCUGCAAUCAUGCC [hsa-mir-3164],1.03
5,GGCGCGCGAGGCUCCAGGCUCC [hsa-mir-3197],0.81
6,GGCGCUGGGACCCCACUAGGGUGGCGCC [hsa-mir-4488],1.25
7,GGCGCUGUCUUGAGACAUUCGCGCAGUGCA [hsa-mir-3177],0.646
8,GGCGCUUCUCCUUCUGAACAGAGCGCU [hsa-mir-1251],-0.423
9,GGCGGAGGCAGGCGUGACCGUUUGCC [hsa-mir-4632],1.11
10,GGCGGCUCGGAGUACCUCUGCCGCC [hsa-mir-6869],0.666
11,GGCGGGCGGCGGUGCCCGUC [hsa-mir-4449],1.53
12,GGCGGUGAAGCUCC [hsa-mir-4532],-0.104
13,GGCGUGGACAACUUGCU [hsa-mir-3943],0.131
14,GGCUCCUGGCGCUGAUGCC [hsa-mir-6886],1.15
15,GGCUCGUCUGUGUUGCCAAUCGACUC [hsa-mir-1307],0.973
16,GGCUCUGGGUCCUGCUCCUUAGAGCA [hsa-mir-2467],0.575
17,GGCUGCAGGCCCGGCCCCUCUC [hsa-mir-6787],1.1
18,GGCUGCGUGCCACCCGGGCAGCU [hsa-mir-3194],-0.112
19,GGCUGCUGGAUUGAAUUAGCUGCA [hsa-mir-1286],0.506

row,Sequence,pull-down binding Z-score
1,GGCUGGACAGGAGAGGGCUCACCCAGG [hsa-mir-6775],1.78
2,GGCUGGCCCCCUGCUUCGUGCCCAUCC [hsa-mir-937],0.83
3,GGCUGGGCAGGCGGAAAGAGGUCUGAACUGCCUCUGCC [hsa-mir-6791],-0.0487
4,GGCUGGGGUCACUGACUCUGCUUCCCCUGCC [hsa-mir-6799],-0.0831
5,GGCUGUGAGCUCUAGCAAUGCCC [hsa-mir-146b],0.59
6,GGCUGUGGCCUAGGGCAAGCCACAAAGCC [hsa-mir-4642],0.183
7,GGCUUUGGCAUCUAUGAAAGCC [hsa-mir-4755],0.507
8,GGGAACUGGUGAGUUGUACAUAGAAAUGCUUUCUAACUCC [hsa-mir-4499],0.112
9,GGGAAGGAGAAGGGACGCUUCCC [hsa-mir-3127],0.268
10,GGGACACAUUUGAGCCAAAUGUCCC [hsa-mir-610],-0.525
11,GGGACAUUGCGGAGAGGGUCUCACAUUGUCCC [hsa-mir-4646],0.925
12,GGGACGUGUGAUGCUGUGCUUCCU [hsa-mir-3689f],-0.185
13,GGGAGAGGGGCCCAGCUGACCCUCCUGUC [hsa-mir-6879],1.68
14,GGGAGCAUGAACAAUGUUUCUCACUCCC [hsa-mir-3162],0.299
15,GGGAGCGGCCCUCACAUUGAUGGCUCCU [hsa-mir-6727],0.313
16,GGGAGGUAAGAAGUCUCUGACUCCU [hsa-mir-5193],-0.44
17,GGGAGGUAUGAUAUCGUGGUUCCU [hsa-mir-3689e],0.8
18,GGGAGUGGUUCCAUCACGCCUCCUCAC [hsa-mir-483],0.311
19,GGGAUAUUUGCAUUAUACUUAUCC [hsa-mir-5009],-0.0499

row,Sequence,pull-down binding Z-score
1,GGGAUGAGCCCUGGCUCUGUUUCCUAG [hsa-mir-378h],0.385
2,GGGCAGAAAUAGAUGGCCU [hsa-mir-4270],1
3,GGGCAGGGAGGGCAGGGCAGGCUCUGGGGUGGGGGGUCUGUGAGUCAGCCACGGCUC [hsa-mir-4516],6.16
4,GGGCAGGGAGUCAGAGGGGACCGCCC [hsa-mir-4740],1.98
5,GGGCAUUCCGGAUAGGCCGAGAAAGUGUUG [hsa-mir-6723],1.67
6,GGGCCAGUCUGACCGUUUCUAGGCG [hsa-mir-551a],1.41
7,GGGCCAUGUCUGUGAGGGCCCA [hsa-mir-4294],0.221
8,GGGCCCCAAGACUCGGGGUUU [hsa-mir-4651],0.65
9,GGGCCGUGCACCCGUGGGCCCC [hsa-mir-1915],0.335
10,GGGCCUGGGUUUCUGAACAC [hsa-mir-196a-1],0.611
11,GGGCGCCGGCGGCCGGGAGAUCCGCGCUUCCUGAAUCCCGGCCGGCCCGCCCGGCGCCC [hsa-mir-4497],0.447
12,GGGCGGAACACCCAGCCCC [hsa-mir-4417],-0.21
13,GGGCGUGGUGGACAGCGAUGCAUCCC [hsa-mir-6803],0.84
14,GGGCUCGUGAUGGCUGGUGGGCCC [hsa-mir-345],-0.356
15,GGGCUGCCCGGGCCGGUCGACCAGCGCGCCGUAGCUCC [hsa-mir-6724-2_6724-3_6724-1_6724-4],1.03
16,GGGCUUUCUGGUUUUAUUUUAAGCCC [hsa-mir-186],0.261
17,GGGGAGAGGGACACGCCCUGGGCUCUGCCCAGGGUGCAGCCGGACUGACUGAG [hsa-mir-1225],1.95
18,GGGGAUGGACUGGAAGUGGGCAGCAUGGAGCUGACCUUCAUCAUGGCUUGGCCAACAUAAUGCCUC [hsa-mir-1236],1.98

# System: G-clamp-N3 (biotin conjugate)
# Assay: as above
# Conditions: RNA library: Library-1 (pre-miRNA loops + repeats)
# Summary of the method: as §1
row,Sequence,pull-down binding Z-score
1,GGCCGUUUGAGAUGUCC [hsa-mir-3674],-0.962
2,GGCCUGGGAUUCCUGCCUUCUAGGUC [hsa-mir-8078],-0.278
3,GGCGACUGGUGUCUAAUUUGUUUGUC [hsa-mir-4429],0.682
4,GGCGCACAGCAGACCCUGCAAUCAUGCC [hsa-mir-3164],0.000458
5,GGCGCGCGAGGCUCCAGGCUCC [hsa-mir-3197],2.56
6,GGCGCUGGGACCCCACUAGGGUGGCGCC [hsa-mir-4488],1.6
7,GGCGCUGUCUUGAGACAUUCGCGCAGUGCA [hsa-mir-3177],-0.296
8,GGCGCUUCUCCUUCUGAACAGAGCGCU [hsa-mir-1251],-0.609
9,GGCGGAGGCAGGCGUGACCGUUUGCC [hsa-mir-4632],1.09
10,GGCGGCUCGGAGUACCUCUGCCGCC [hsa-mir-6869],0.238
11,GGCGGGCGGCGGUGCCCGUC [hsa-mir-4449],1.71
12,GGCGGUGAAGCUCC [hsa-mir-4532],0.399
13,GGCGUGGACAACUUGCU [hsa-mir-3943],0.951
14,GGCUCCUGGCGCUGAUGCC [hsa-mir-6886],-0.347
15,GGCUCGUCUGUGUUGCCAAUCGACUC [hsa-mir-1307],-0.468
16,GGCUCUGGGUCCUGCUCCUUAGAGCA [hsa-mir-2467],0.344
17,GGCUGCAGGCCCGGCCCCUCUC [hsa-mir-6787],0.112
18,GGCUGCGUGCCACCCGGGCAGCU [hsa-mir-3194],1.93
19,GGCUGCUGGAUUGAAUUAGCUGCA [hsa-mir-1286],-0.74

row,Sequence,pull-down binding Z-score
1,GGCUGGACAGGAGAGGGCUCACCCAGG [hsa-mir-6775],0.487
2,GGCUGGCCCCCUGCUUCGUGCCCAUCC [hsa-mir-937],-1.14
3,GGCUGGGCAGGCGGAAAGAGGUCUGAACUGCCUCUGCC [hsa-mir-6791],0.578
4,GGCUGGGGUCACUGACUCUGCUUCCCCUGCC [hsa-mir-6799],-0.448
5,GGCUGUGAGCUCUAGCAAUGCCC [hsa-mir-146b],-0.867
6,GGCUGUGGCCUAGGGCAAGCCACAAAGCC [hsa-mir-4642],0.507
7,GGCUUUGGCAUCUAUGAAAGCC [hsa-mir-4755],0.33
8,GGGAACUGGUGAGUUGUACAUAGAAAUGCUUUCUAACUCC [hsa-mir-4499],0.204
9,GGGAAGGAGAAGGGACGCUUCCC [hsa-mir-3127],2.68
10,GGGACACAUUUGAGCCAAAUGUCCC [hsa-mir-610],-0.286
11,GGGACAUUGCGGAGAGGGUCUCACAUUGUCCC [hsa-mir-4646],0.248
12,GGGACGUGUGAUGCUGUGCUUCCU [hsa-mir-3689f],-0.338
13,GGGAGAGGGGCCCAGCUGACCCUCCUGUC [hsa-mir-6879],-0.867
14,GGGAGCAUGAACAAUGUUUCUCACUCCC [hsa-mir-3162],1.01
15,GGGAGCGGCCCUCACAUUGAUGGCUCCU [hsa-mir-6727],1.42
16,GGGAGGUAAGAAGUCUCUGACUCCU [hsa-mir-5193],0.481
17,GGGAGGUAUGAUAUCGUGGUUCCU [hsa-mir-3689e],-0.485
18,GGGAGUGGUUCCAUCACGCCUCCUCAC [hsa-mir-483],-0.668
19,GGGAUAUUUGCAUUAUACUUAUCC [hsa-mir-5009],-0.101

row,Sequence,pull-down binding Z-score
1,GGGAUGAGCCCUGGCUCUGUUUCCUAG [hsa-mir-378h],-0.127
2,GGGCAGAAAUAGAUGGCCU [hsa-mir-4270],2.97
3,GGGCAGGGAGGGCAGGGCAGGCUCUGGGGUGGGGGGUCUGUGAGUCAGCCACGGCUC [hsa-mir-4516],2.89
4,GGGCAGGGAGUCAGAGGGGACCGCCC [hsa-mir-4740],2.09
5,GGGCAUUCCGGAUAGGCCGAGAAAGUGUUG [hsa-mir-6723],0.79
6,GGGCCAGUCUGACCGUUUCUAGGCG [hsa-mir-551a],0.753
7,GGGCCAUGUCUGUGAGGGCCCA [hsa-mir-4294],3.2
8,GGGCCCCAAGACUCGGGGUUU [hsa-mir-4651],-0.146
9,GGGCCGUGCACCCGUGGGCCCC [hsa-mir-1915],1.73
10,GGGCCUGGGUUUCUGAACAC [hsa-mir-196a-1],0.486
11,GGGCGCCGGCGGCCGGGAGAUCCGCGCUUCCUGAAUCCCGGCCGGCCCGCCCGGCGCCC [hsa-mir-4497],-0.232
12,GGGCGGAACACCCAGCCCC [hsa-mir-4417],-1.31
13,GGGCGUGGUGGACAGCGAUGCAUCCC [hsa-mir-6803],1.56
14,GGGCUCGUGAUGGCUGGUGGGCCC [hsa-mir-345],3
15,GGGCUGCCCGGGCCGGUCGACCAGCGCGCCGUAGCUCC [hsa-mir-6724-2_6724-3_6724-1_6724-4],0.0384
16,GGGCUUUCUGGUUUUAUUUUAAGCCC [hsa-mir-186],0.465
17,GGGGAGAGGGACACGCCCUGGGCUCUGCCCAGGGUGCAGCCGGACUGACUGAG [hsa-mir-1225],1.58
18,GGGGAUGGACUGGAAGUGGGCAGCAUGGAGCUGACCUUCAUCAUGGCUUGGCCAACAUAAUGCCUC [hsa-mir-1236],-0.0946
